B1: Azoarcus group I ribozyme (parent)
chain: GUGCCUUGCGCCGGGAAACCACGCAAGGGAUGGUGUCAAAUUCGGCGAAACCUAAGCGCCCGCCCGGGCGUAUGGCAACGCCGAGCCAAGCUUCGGCGCCUGCGCCGAUGAAGGUGUAGAGACUAGACGGCACCCACCUAAGGCAAACGCUAUGGUGAAGGCAUAGUCCAGGGAGUGGCGAAAGUCACACAAACCGG

Variants of: B1
Test: reverse-splicing fitness (ratio to wild type); higher = more active; in vitro selection; Mg2+ level not given
In short: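 An in vitro group I ribozyme library with randomized positions was T7-transcribed and gel-purified. In triplicate, 10 pmol RNA in EPPS pH 7.5 was reacted with 50 pmoles of a 30-nt RNA substrate for 1 h at 37 °C across several added MgCl2 levels (1–48 mM), then stopped with EDTA. Products were reverse transcribed from a substrate-complementary primer, PCR-amplified and sequenced (HiSeq 4000). Fitness is a variant's read proportion after selection over that before, normalised to wild type.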

Variant | reverse-splicing fitness
GUGCCUUGCGCCGGGAAACCACGCAAGGGAUGGUGUCAAAUUCGGCGAAACCUAAGCGCCCGCCCGGGCGUAUGGCAACGCCGAGCCAAGCUUCGGCGCCUGCGCCGAUGGAGGUGUAGAGACUAGACGGCACCCACCUAAGGCUAACGCUAUGGUGAAGGCAUAGUCGAGGGAGUGGCGAAAGUCACACAAACCGG [A111G A145U C169G] | 0.13
GUGCCUUGCGCCGGGAAACCACGCAAGGGAUGGUGUCAAAUUCGGCGAAACCUAAGCGCCCGCCCGGGCGUAUGGCAACGCCGAGCCAAGCUUCGGCGCCUGCGCCGAUGGAGGUGUAGAGACUAGACGGCACCCACCUAAGGCUAACGCUAUGGUGAAGGCAUAGUCAAGGGAGUGGCGAAAGUCACACAAACCGG [A111G A145U C169A] | 0.0537
GUGCCUUGCGCCGGGAAACCACGCAAGGGAUGGUGUCAAAUUCGGCGAAACCUAAGCGCCCGCCCGGGCGUAUGGCAACGCCGAGCCAAGCUUCGGCGCCUGCGCCGAUGGAGGUGUAGAGACUAGACGGCACCCACCUAAGGCUAACGCUAUGGUGAAGGCAUAGUCUAGGGAGUGGCGAAAGUCACACAAACCGG [A111G A145U C169U] | 0.194
GUGCCUUGCGCCGGGAAACCACGCAAGGGAUGGUGUCAAAUUCGGCGAAACCUAAGCGCCCGCCCGGGCGUAUGGCAACGCCGAGCCAAGCUUCGGCGCCUGCGCCGAUGGAGGUGUAGAGACUAGACGGCACCCACCUAAGGCAAACGAUAUGGUGAAGGCAUAGUCGAGGGAGAGGCGAAAGUCACACAAACCGG [A111G C150A C169G U176A] | 0.0252
GUGCCUUGCGCCGGGAAACCACGCAAGGGAUGGUGUCAAAUUCGGCGAAACCUAAGCGCCCGCCCGGGCGUAUGGCAACGCCGAGCCAAGCUUCGGCGCCUGCGCCGAUGGAGGUGUAGAGACUAGACGGCACCCACCUAAGGCAAACGAUAUGGUGAAGGCAUAGUCGAGGGAGCGGCGAAAGUCACACAAACCGG [A111G C150A C169G U176C] | 0.0218
GUGCCUUGCGCCGGGAAACCACGCAAGGGAUGGUGUCAAAUUCGGCGAAACCUAAGCGCCCGCCCGGGCGUAUGGCAACGCCGAGCCAAGCUUCGGCGCCUGCGCCGAUGGAGGUGUAGAGACUAGACGGCACCCACCUAAGGCAAACGAUAUGGUGAAGGCAUAGUCGAGGGAGGGGCGAAAGUCACACAAACCGG [A111G C150A C169G U176G] | 0.00767
GUGCCUUGCGCCGGGAAACCACGCAAGGGAUGGUGUCAAAUUCGGCGAAACCUAAGCGCCCGCCCGGGCGUAUGGCAACGCCGAGCCAAGCUUCGGCGCCUGCGCCGAUGGAGGUGUAGAGACUAGACGGCACCCACCUAAGGCAAACGAUAUGGUGAAGGCAUAGUCAAGGGAGUGGCGAAAGUCACACAAACCGG [A111G C150A C169A] | 0.0135
GUGCCUUGCGCCGGGAAACCACGCAAGGGAUGGUGUCAAAUUCGGCGAAACCUAAGCGCCCGCCCGGGCGUAUGGCAACGCCGAGCCAAGCUUCGGCGCCUGCGCCGAUGGAGGUGUAGAGACUAGACGGCACCCACCUAAGGCAAACGAUAUGGUGAAGGCAUAGUCGAGGGAGUGGCGAAAGUCACACAAACCGG [A111G C150A C169G] | 0.0174
GUGCCUUGCGCCGGGAAACCACGCAAGGGAUGGUGUCAAAUUCGGCGAAACCUAAGCGCCCGCCCGGGCGUAUGGCAACGCCGAGCCAAGCUUCGGCGCCUGCGCCGAUGGAGGUGUAGAGACUAGACGGCACCCACCUAAGGCAAACGAUAUGGUGAAGGCAUAGUCAAGGGAGGGGCGAAAGUCACACAAACCGG [A111G C150A C169A U176G] | 0.00678
GUGCCUUGCGCCGGGAAACCACGCAAGGGAUGGUGUCAAAUUCGGCGAAACCUAAGCGCCCGCCCGGGCGUAUGGCAACGCCGAGCCAAGCUUCGGCGCCUGCGCCGAUGGAGGUGUAGAGACUAGACGGCACCCACCUAAGGCAAACGAUAUGGUGAAGGCAUAGUCAAGGGAGCGGCGAAAGUCACACAAACCGG [A111G C150A C169A U176C] | 0.0177
GUGCCUUGCGCCGGGAAACCACGCAAGGGAUGGUGUCAAAUUCGGCGAAACCUAAGCGCCCGCCCGGGCGUAUGGCAACGCCGAGCCAAGCUUCGGCGCCUGCGCCGAUGGAGGUGUAGAGACUAGACGGCACCCACCUAAGGCAAACGAUAUGGUGAAGGCAUAGUCAAGGGAGAGGCGAAAGUCACACAAACCGG [A111G C150A C169A U176A] | 0.0171
GUGCCUUGCGCCGGGAAACCACGCAAGGGAUGGUGUCAAAUUCGGCGAAACCUAAGCGCCCGCCCGGGCGUAUGGCAACGCCGAGCCAAGCUUCGGCGCCUGCGCCGAUGGAGGUGUAGAGACUAGACGGCACCCACCUAAGGCUAACGCUAUGGUGAAGGCAUAGUCGAGGGAGGGGCGAAAGUCACACAAACCGG [A111G A145U C169G U176G] | 0.00522
GUGCCUUGCGCCGGGAAACCACGCAAGGGAUGGUGUCAAAUUCGGCGAAACCUAAGCGCCCGCCCGGGCGUAUGGCAACGCCGAGCCAAGCUUCGGCGCCUGCGCCGAUGGAGGUGUAGAGACUAGACGGCACCCACCUAAGGCUAACGCUAUGGUGAAGGCAUAGUCGAGGGAGAGGCGAAAGUCACACAAACCGG [A111G A145U C169G U176A] | 0.0268
GUGCCUUGCGCCGGGAAACCACGCAAGGGAUGGUGUCAAAUUCGGCGAAACCUAAGCGCCCGCCCGGGCGUAUGGCAACGCCGAGCCAAGCUUCGGCGCCUGCGCCGAUGGAGGUGUAGAGACUAGACGGCACCCACCUAAGGCUAACGCUAUGGUGAAGGCAUAGUCGAGGGAGCGGCGAAAGUCACACAAACCGG [A111G A145U C169G U176C] | 0.0429
GUGCCUUGCGCCGGGAAACCACGCAAGGGAUGGUGUCAAAUUCGGCGAAACCUAAGCGCCCGCCCGGGCGUAUGGCAACGCCGAGCCAAGCUUCGGCGCCUGCGCCGAUGGAGGUGUAGAGACUAGACGGCACCCACCUAAGGCAAACGAUAUGGUGAAGGCAUAGUCCAGGGAGUGGCGAAAGUCACACAAACCGG [A111G C150A] | 0.462

From the RNAGym collection of RNA variant scans (doi:10.1093/molbev/msab373)
